Data set [1] deals with T1, NAD(P)H oxidoreductase (Npo) (Amphibacillus xylanus, UniProt K0J097).
T1 construct: recombinant from E. coli DE3, pET101 TOPO, reverse primer keeps native stop (primers encode N-terminus MAKDF, C-terminus CENFK); 23 kDa; 1 mol FMN per subunit
T1 sequence (K0J097 1-199): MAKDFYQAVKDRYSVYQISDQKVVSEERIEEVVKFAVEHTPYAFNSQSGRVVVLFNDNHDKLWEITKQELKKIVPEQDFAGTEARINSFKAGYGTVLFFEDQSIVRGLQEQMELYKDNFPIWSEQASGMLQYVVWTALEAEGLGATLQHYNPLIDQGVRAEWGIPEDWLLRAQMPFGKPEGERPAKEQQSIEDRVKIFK
As to the kind of experiment: NADPH oxidation kinetics (details not told). The following applies: only an upper bound printed; conditions of this determination not told. The format is biochemical.

Data set [2] addresses T1, NAD(P)H oxidoreductase (Npo). Put plainly: spectral analysis of FMN released from the protein by […] SDS. In kind it is binding. The settings on record: bound flavin cofactor, 1 mol FMN per subunit.
Substrate in data set [3]: Cc1cc2nc3c(=O)[nH]c(=O)nc-3n(C[C@H](O)[C@H](O)[C@H](O)COP(=O)(O)OP(=O)(O)OC[C@H]3O[C@@H](n4cnc5c(N)ncnc54)[C@H](O)[C@@H]3O)c2cc1C
Put plainly: purified protein. The format is biochemical, Amphibacillus xylanus. The settings on record: 50 mM sodium phosphate pH 7.0, 0.5 mM EDTA, 25 °C, FAD 15-150 μM as free substrate.

As a reminder, the Km is the concentration of substrate that gives half-maximal velocity. For `NC(=O)C1=CN([C@@H]2O[C@H](COP(=O)(O)OP(=O)(O)OC[C@H]3O[C@@H](n4cnc5c(N)ncnc54)[C@H](OP(=O)(O)O)[C@@H]3O)[C@@H](O)[C@H]2O)C=CC1` [NADPH], the Km in data set [1] was < 33 µM.

On to `Cc1cc2nc3c(=O)[nH]c(=O)nc-3n(C[C@H](O)[C@H](O)[C@H](O)COP(=O)(O)O)c2cc1C` [FMN], for which the “spectral analysis of FMN released from the protein by 0.1% SDS” value in data set [2] is listed as “spectral analysis of free FMN, which was released from Npo protein”.

B1: NAD(P)H oxidoreductase (Npo) (Amphibacillus xylanus NBRC 15112) (protein)
chain: T1 sequence (K0J097 1-199)
notes: recombinant from E. coli DE3, pET101 TOPO, reverse primer keeps native stop (primers encode N-terminus MAKDF, C-terminus CENFK); 23 kDa; 1 mol FMN per subunit
What is called kcat is the maximal rate divided by the concentration of active sites. A word on the kcat/Km: it is the turnover number divided by the Michaelis constant. As for B1, in data set [3] (150 μM NADPH), the Km was 71 ± 10 µM, the kcat was 1 ± 0.1 s⁻¹ and the kcat/Km is 14000 ± 1000 M⁻¹ s⁻¹.

B2: NADH oxidase (Nox) (Amphibacillus xylanus NBRC 15112) (protein)
chain: MLDKDIKQQLEQYLALLENDIVIKVSVGDDKVSKDTLELVNEIADMSSMISVEETTLERTPSFSINRKGEPDSGVVFAGIPLGHEFTSLVLALLQVSGRAPKVEASVIDAIKKVEGKHDFVTYVSLTCQNCPDVVQALNLMSVVNPNITHTMVEGSAFKDEVDRLNILAVPSVYLNGEFMASGRMTIEDILGHLGSGIDASELNEKDPFDVLVIGGGPAGASSAIYAARKGIRVGIIADRFGGQVMDTLGIENFIGTKYTEGPKLISEIEQHVNEYNIDVMKGLRAHNIEKKDLFEVQLDNGAVLKSKTIILATGARWRDIGVPGEKEYKNKGVAYCTHCDAPLFEGKHVAVVGGGNSGIESALDLAGIVKHVTVFEFMSELKADAVLQERLRSLPNVDVILNAQTTEITGDETVKGISYIDRTTNEEKHVELQGAFIQIGLAPNTEWLGDTVERNQIGEIVIDKKGQTSVPGIFAAGDCTDTPYKQIIVSMGAGATAALGAFDYLLRN
On to B2, for which, in data set [3] (150 μM NADH), the Michaelis-Menten constant (Km) amounted to 37 ± 3 µM, the kcat amounted to 91 ± 8 s⁻¹ and the kcat/Km was found to be 2.42e+06 ± 74000 M⁻¹ s⁻¹.

The values are drawn from publication PMC5986008, “Intracellular free flavin and its associated enzymes participate in oxygen and iron metabolism in Amphibacillus xylanus lacking a respiratory chain” (FEBS Open Bio, 2018).
